# Measured values as given in PMC3571920.
# Biological target: HIV-1 integrase tagged at the C-terminus with the HA epitope (IN-HA) (HIV-1 (Lai molecular clone))
# Assay: cross-linking; gel filtration fractions 30-32 (IN complex III) of extracts of infected LEDGF/p75 knock-down TL34 cells, 2 h p.i.; 0.25 to 2 mM EGS, 30 min at room temperature, 20 mM HEPES-KOH pH 7.2, 0.3 M KCl; SDS-PAGE and anti-HA-HRP blot
substance,measurement,value
HIV-1 integrase tagged at the C-terminus with the HA epitope (IN-HA) (enzyme),stoichiometry N,4
